Experiment [1] deals with T1, FAP-cleaved human FGF21 (human, UniProt Q9NSA1 29-199).
T1 construct: Made by digesting intact human FGF21 with human FAP; also called cleaved FGF21; cFGF21
T1 sequence: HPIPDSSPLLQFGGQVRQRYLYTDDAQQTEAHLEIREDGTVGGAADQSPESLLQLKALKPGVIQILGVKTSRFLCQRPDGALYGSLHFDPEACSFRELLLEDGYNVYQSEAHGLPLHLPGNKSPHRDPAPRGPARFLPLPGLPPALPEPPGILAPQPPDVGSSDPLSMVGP
The experiment in a line: sandwich ELISA; capture mAb15, detection mAb4. From the text: (§1) The absorbance values were plotted as a function of antibody concentration and the data were fitted to a three parameter equation for each antibody using Prism 6 (GraphPad Software, Inc., La Jolla, Calif.). The most consistent result was observed when antibodies mAb4 or 9 were used as the capture antibody and antibody mAb11 or mAb15 was used as the detector antibody (FIG. 2 and Table 7). Therefore, mAb8 and 16 were removed from further analysis.
In general terms: In an ELISA, binding on a coated surface is turned into a signal by an enzyme label.

Experiment [2] addresses T2, intact human FGF21 (human, UniProt Q9NSA1 29-209).
T2 construct: also called full-length, uncleaved FGF21; iFGF21
T2 sequence: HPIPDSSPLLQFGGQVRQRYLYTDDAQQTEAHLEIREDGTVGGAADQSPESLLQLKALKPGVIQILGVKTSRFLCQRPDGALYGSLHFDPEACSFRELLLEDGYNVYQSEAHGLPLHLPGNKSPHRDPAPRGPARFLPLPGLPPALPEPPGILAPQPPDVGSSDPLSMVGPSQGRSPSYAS
The experiment is described as follows: sandwich ELISA; capture mAb15, detection mAb4.
Text: as §1

The target of experiment [3] is T1, FAP-cleaved human FGF21. The experiment is described as follows: sandwich ELISA; capture mAb15, detection mAb11.
Text: as §1

In experiment [4] the target is T2, intact human FGF21. The experiment in a line: sandwich ELISA; capture mAb15, detection mAb11.
Text: as §1

The target in experiment [5] is T2, intact human FGF21. The experiment in a line: sandwich ELISA, intact human FGF21; capture mAb9, detector mAb10. The source says:
(§2) The absorbance values were plotted as a function of antibody concentration and the data were fitted to a three parameter equation to calculate the half maximal effective concentration (EC₅₀) values for each antibody using Prism 6 (GraphPad Software, Inc., La Jolla, Calif.) (Table 6).

The target in experiment [6] is T1, FAP-cleaved human FGF21. The experiment in a line: sandwich ELISA; capture mAb9, detection mAb15.
Text: as §1

For experiment [7], the target named is T2, intact human FGF21. The experiment in a line: sandwich ELISA; capture mAb9, detection mAb15.
Text: as §1

The target in experiment [8] is T1, FAP-cleaved human FGF21. The experiment is described as follows: sandwich ELISA; EC50 on FAP-cleaved FGF21 over EC50 on intact FGF21. The protocol: (§3) IgG obtained from the selected 20 hybridomas identified in Example 1 were further characterized by ELISA. ELISA was performed as follows: 96 well MaxiSorp plate (439454, Nalge Nunc International; Rochester, N.Y.) was coated with 1 μg/mL of anti-FGF21 mAbs or anti-FGF21 sheep pAbs (Cat. No. RD184108100, Biovendor, Asheville, N.C.) in coating buffer (50 mM sodium carbonate, pH 9.6) overnight at 4° C. […] After washing with the Washing buffer, the plate was incubated with 0.5 μg/ml of the secondary antibody (R&D Systems, biotinylated goat anti-FGF21 pAb BAF2539) for 1-2 hr at room temperature. After washing with Washing buffer, the plate was incubated with High Sensitivity Streptavidin-HRP (PIERCE Cat. No. 21130) diluted 1:1,000 in assay buffer. After washing with the Washing buffer, the binding of anti-FGF21 to recombinant FGF21 was assessed by adding substrate 3, 3′, 5, 5′ tetramethyl benzidine (TMBE 1000, Moss; Pasadena, Md.). The mean absorbance values from duplicate wells were plotted as a function of antibody concentration and the data were fitted to a three parameter equation to calculate the half maximal effective concentration (EC₅₀) values for each antibody using Prism 6 (GraphPad Software, Inc., La Jolla, Calif.) (Table 2).

In experiment [9] the target is T1, FAP-cleaved human FGF21. The experiment is described as follows: sandwich ELISA; capture mAb9, detection mAb11.
Text: as §1

For experiment [10], the target named is T2, intact human FGF21. The experiment is described as follows: sandwich ELISA; capture mAb9, detection mAb11.
Text: as §1

Experiment [11] concerns the target T2, intact human FGF21. The experiment in a line: sandwich ELISA, intact human FGF21; capture mAb9, detector mAb11.
Experiment [12] addresses T1, FAP-cleaved human FGF21. The experiment is described as follows: sandwich ELISA; capture mAb9, detection mAb16.
Text: as §1

For experiment [13], the target named is T2, intact human FGF21. The experiment is described as follows: sandwich ELISA; capture mAb9, detection mAb16.
Text: as §1

Experiment [14] concerns the target T1, FAP-cleaved human FGF21. The experiment is described as follows: sandwich ELISA; coated primary Ab, FGF21 titrated, detector biotinylated goat anti-FGF21 pAb BAF2539. The protocol: as §3
Experiment [15] deals with T2, intact human FGF21. The experiment is described as above. On the procedure:
as §3

The target of experiment [16] is T2, intact human FGF21. The experiment is described as follows: sandwich ELISA, intact human FGF21; capture mAb9, detector mAb1.
Experiment [17] deals with T1, FAP-cleaved human FGF21. The experiment in a line: sandwich ELISA; capture mAb4, detection mAb11.
Text: as §1

Experiment [18] addresses T2, intact human FGF21. The experiment in a line: sandwich ELISA; capture mAb4, detection mAb11.
Text: as §1

The target of experiment [19] is T2, intact human FGF21. The experiment is described as follows: sandwich ELISA, intact human FGF21; capture mAb4, detector mAb1.
Text: as §2

Experiment [20] deals with T2, intact human FGF21. The experiment is described as follows: sandwich ELISA, intact human FGF21; capture mAb4, detector mAb10.
Text: as §2

Experiment [21] has as its target T1, FAP-cleaved human FGF21. The experiment is described as follows: sandwich ELISA; capture mAb4, detection mAb16.
Text: as §1

Experiment [22] addresses T2, intact human FGF21. The experiment in a line: sandwich ELISA; capture mAb4, detection mAb16.
Text: as §1

The target of experiment [23] is T1, FAP-cleaved human FGF21. The experiment is described as follows: sandwich ELISA; capture mAb4, detection mAb15.
Text: as §1

Experiment [24] deals with T2, intact human FGF21. The experiment is described as follows: sandwich ELISA; capture mAb4, detection mAb15.
Text: as §1

The target of experiment [25] is T2, intact human FGF21. The experiment is described as follows: sandwich ELISA, intact human FGF21; capture mAb4, detector mAb11.
Text: as §2

The target of experiment [26] is T2, intact human FGF21. The experiment is described as follows: sandwich ELISA, intact human FGF21; capture mAb11, detector mAb9.
In experiment [27] the target is T1, FAP-cleaved human FGF21. The experiment in a line: sandwich ELISA; capture mAb11, detection mAb4.
Text: as §1

Experiment [28] has as its target T2, intact human FGF21. The experiment is described as follows: sandwich ELISA; capture mAb11, detection mAb4.
Text: as §1

Experiment [29] has as its target T1, FAP-cleaved human FGF21. The experiment in a line: sandwich ELISA; capture mAb11, detection mAb15.
Text: as §1

For experiment [30], the target named is T2, intact human FGF21. The experiment is described as follows: sandwich ELISA; capture mAb11, detection mAb15.
Text: as §1

The target of experiment [31] is T2, intact human FGF21. The experiment in a line: sandwich ELISA, intact human FGF21; capture mAb11, detector mAb4.

B1: mAb15 (antibody, V domains shown)
VH: QVQLIQSGPGLVQPSQSLSITCTVSGFSLTGYAIHWVRQSPGKGLEWLGMIWKSGNTDYNAAFMSRLSITKDNSKSQVFFKMNSLQADDTAIYYCARNGYDYEFVYWGQGTLVTVSA
VL: DVLMTQTPLSLPVSLGDQASISCRSSQIIVHNNGDTYLEWYLQKPGQSPKLLIYKISNRFSGVPDRFSGSGSGTDFTLKISRVEAEDLGVYYCFQGSHVPYTFGGGTKLEIKR
notes: Biotinylated when used as detector; also called BIO-15 (biotinylated); mAb15-Biotin
The term EC50 denotes the concentration that produces a half-maximal response. The low end stands for greater potency, the high end for weaker potency. B1: the EC50 with FAP-cleaved human FGF21 [1] amounted to 0.562 ng/mL; in the experiment with intact human FGF21 [2] it was 0.537 ng/mL; with FAP-cleaved human FGF21 [3], 1.24 ng/mL; in the experiment with intact human FGF21 [4], 1.39 ng/mL.

B2: mAb9 (antibody, V domains shown)
VH: EVQLQQSGPELVKPGASVKIPCKASGYTFTDYYMGWVKQSHGKSLEWIGDINPNNGVTINNQNFKGKATLTVDKSSSTAYMELRSLASEDTAVYYCTRGYGGALDYWGQGTSVTVSS
VL: DIQMTQSPASLSASVGETVIITCRASENIYSYLAWYQQKQGKSPQLLVYNIRTLAEGVPSRFSGSGSGTQFSLKINSLQPEDFGSYYCQHHYDSPWTFGGGTKLEIKR
notes: also called BIO-9 (biotinylated); antibody 9
For B2, the EC50 in the experiment with intact human FGF21 [5] came to 0.161 ng/mL; with FAP-cleaved human FGF21 [6], 0.363 ng/mL; with intact human FGF21 [7], 0.431 ng/mL; with FAP-cleaved human FGF21 [9], 0.156 ng/mL; with intact human FGF21 [10], 0.166 ng/mL; with intact human FGF21 [11] it was 0.156 ng/mL. Besides, the EC50 in the experiment with FAP-cleaved human FGF21 [12] was found to be 6.23 ng/mL; in the experiment with intact human FGF21 [13] it was 1.45 ng/mL; with FAP-cleaved human FGF21 [14] it was 1.39 ng/mL; with intact human FGF21 [15], 0.855 ng/mL; with intact human FGF21 [16], 0.249 ng/mL. In addition, the “EC50 ratio (Cleaved/Intact)” value with FAP-cleaved human FGF21 [8] turned out to be 1.6.

B3: mAb4 (antibody, V domains shown)
VH: EVKLVESGGDLVKPGGSLKLSCAASGFTFSSYGMSWVRQTPDKRLEWVATISTGGGYTYYPDSVKGRFTISRDNAKNTLYLQMSSLRSEDTAMYYCARHDLVDWYFDVWGTGTTVTVSS
VL: QIVLTQSPAIMSAPLGERVTMTCTASSSVSSSYLHWYQQKPGSSPKVWIYRTTNLASGVPTRFSGSGSGTSYSLTISSMEAEDAATYYCHQYHRSPPTWTFGGGTKLEIKR
notes: Biotinylated when used as detector, coupled to beads in the Simoa assays; also called BIO-4 (biotinylated); antibody 4
Turning to B3, the EC50 in the experiment with FAP-cleaved human FGF21 [17] stood at 0.148 ng/mL; with intact human FGF21 [18], 0.195 ng/mL; with intact human FGF21 [19] it was 0.193 ng/mL; in the experiment with intact human FGF21 [20], 0.108 ng/mL; in the experiment with FAP-cleaved human FGF21 [21], 7.04 ng/mL; with intact human FGF21 [22] it was 1.25 ng/mL. The EC50 is 0.17 ng/mL in the experiment with FAP-cleaved human FGF21 [14]; 0.09 ng/mL with intact human FGF21 [15]; 0.263 ng/mL with FAP-cleaved human FGF21 [23]; 0.232 ng/mL with intact human FGF21 [24]; 0.133 ng/mL in the experiment with intact human FGF21 [25]. The “EC50 ratio (Cleaved/Intact)” value with FAP-cleaved human FGF21 [8] turned out to be 1.9.

B4: mAb11 (antibody, V domains shown)
VH: QVQLQQSGAELARPGASVKLSCKASGYTFTNYGISWVKQRTGQGLEWIGEIYPRSDNTYYNEKFKGKATLTADKSSSTAYMELRSLTSEDSAVYFCTRSDYGFFDYWGQGTTLTVSS
VL: QIVLTQSPALMSASPGERVTMTCSAGSSVSYMYWYQQKPRSSPKPWIYLTSNLASGVPARFSGSGSGTSYSLTISSMEAEDAATYYCQQWSSNPRTFGGGTKLEIKR
notes: Biotinylated when used as detector; also called BIO-11 (biotinylated); antibody 11
Consider B4, for which the EC50 is 0.195 ng/mL in the experiment with intact human FGF21 [26]; 0.204 ng/mL with FAP-cleaved human FGF21 [27]; 0.205 ng/mL with intact human FGF21 [28]; 0.63 ng/mL with FAP-cleaved human FGF21 [29]; 0.774 ng/mL with intact human FGF21 [30]; 0.161 ng/mL with intact human FGF21 [31]. Moreover, the concentration for a half-maximal effect (EC50) with FAP-cleaved human FGF21 [14] came to 0.318 ng/mL; with intact human FGF21 [15], 0.149 ng/mL. In the experiment with FAP-cleaved human FGF21 [8], the “EC50 ratio (Cleaved/Intact)” value came out at 2.1.

The values are drawn from US20210025890A1 (Genentech, published 2021).
